Reference: patent US10538591B2, “Anti-fibulin-3 antibodies and uses thereof” (THE BRIGHAM AND WOMEN'S HOSPITAL, INC., priority 2014, dated 2020)
Entries after “also recorded” stand apart in the source; their conditions may differ.

What was measured:
[1] = tested on: GBM34 glioblastoma stem cells; test: Intratumoral injection in subcutaneous GBM34 xenografts; type: in vivo, Athymic mice
Description: (§1) Athymic mice received sub-cutaneous (SQ) bilateral implants of GBM34 glioblastoma stem cells (1×10^6 cells/50 μl). Tumors were allowed to grow until they reached a volume of 100 mm^3. Animals (N=5/group) were then injected with mAb428.2 (10 mg/kg) in the left-side tumor and non-immune mouse IgG1 in the right-side tumor, every two days (total: 4 injections). Mice were sacrificed when any of their tumors reached a length >18 mm. […] Growth curves were analyzed by repeated-measures ANOVA and final parameters were compared by paired T-test.
as §1, with “received SQ” for “received sub-cutaneous (SQ)”, “Animals (N=3/group)” for “Animals (N=5/group)”, “with mAb428.3C11 (30” for “with mAb428.2 (10”, “(total: 3” for “(total: 4”, “length >=20” for “length >18”

fibulin-5 = target: T1, fibulin-5 (Homo sapiens, UniProt Q9UBX5); test: Cross-reactivity against homologous fibulin-5; type: binding
T1 sequence (Q9UBX5 24-448): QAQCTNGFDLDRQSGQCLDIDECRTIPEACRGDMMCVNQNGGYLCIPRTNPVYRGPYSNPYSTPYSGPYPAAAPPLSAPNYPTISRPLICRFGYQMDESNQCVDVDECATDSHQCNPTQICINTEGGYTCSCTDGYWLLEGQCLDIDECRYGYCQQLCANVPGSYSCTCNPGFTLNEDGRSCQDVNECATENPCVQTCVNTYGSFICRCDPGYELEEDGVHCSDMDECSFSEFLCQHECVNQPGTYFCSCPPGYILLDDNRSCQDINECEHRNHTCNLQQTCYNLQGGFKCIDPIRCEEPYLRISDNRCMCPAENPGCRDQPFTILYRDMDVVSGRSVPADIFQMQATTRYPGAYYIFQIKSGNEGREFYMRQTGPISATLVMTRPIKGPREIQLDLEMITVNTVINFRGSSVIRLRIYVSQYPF

fibulin-4 = target: T2, fibulin-4 (Homo sapiens, UniProt O95967); test: Cross-reactivity against homologous fibulin-4; type: binding
T2 sequence (O95967 24-443): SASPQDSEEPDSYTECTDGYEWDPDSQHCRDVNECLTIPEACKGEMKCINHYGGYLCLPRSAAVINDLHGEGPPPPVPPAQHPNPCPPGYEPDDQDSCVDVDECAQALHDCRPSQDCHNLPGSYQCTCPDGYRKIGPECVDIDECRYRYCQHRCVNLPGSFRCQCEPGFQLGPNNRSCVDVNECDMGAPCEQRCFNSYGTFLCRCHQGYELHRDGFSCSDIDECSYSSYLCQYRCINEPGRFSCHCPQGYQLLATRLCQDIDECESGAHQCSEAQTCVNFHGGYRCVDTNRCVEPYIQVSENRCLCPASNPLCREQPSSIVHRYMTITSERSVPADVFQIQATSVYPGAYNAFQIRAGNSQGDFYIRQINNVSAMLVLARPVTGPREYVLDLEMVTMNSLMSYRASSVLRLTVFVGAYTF

[2] = target: T3, fibulin-3 in human primary glioblastoma (Homo sapiens, UniProt Q12805); test: Immunohistochemistry of human primary glioblastoma sections; conditions: anti-Fib3/911 10 μg/ml, mAb428.3C11 40 μg/ml, mAb3-5 5 μg/ml
T3 construct: specificity of mAb428.3C11 to detect native fibulin-3 in tumor tissue; from tissue; host or cells: frozen sections of human primary glioblastoma
T3 sequence (Q12805 18-493): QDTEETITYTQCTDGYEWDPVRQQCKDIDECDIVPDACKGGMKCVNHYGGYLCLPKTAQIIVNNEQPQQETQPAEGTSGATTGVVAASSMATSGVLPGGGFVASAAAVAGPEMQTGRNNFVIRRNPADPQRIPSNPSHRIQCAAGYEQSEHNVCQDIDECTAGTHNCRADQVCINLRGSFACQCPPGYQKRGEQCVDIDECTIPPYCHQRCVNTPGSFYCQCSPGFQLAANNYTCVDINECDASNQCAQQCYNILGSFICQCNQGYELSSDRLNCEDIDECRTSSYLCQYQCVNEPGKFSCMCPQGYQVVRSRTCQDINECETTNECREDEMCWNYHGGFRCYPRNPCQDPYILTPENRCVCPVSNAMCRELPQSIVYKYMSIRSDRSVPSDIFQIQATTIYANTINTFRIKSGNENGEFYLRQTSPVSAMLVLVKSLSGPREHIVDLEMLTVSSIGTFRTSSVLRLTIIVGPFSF
Description: Frozen sections of human primary glioblastoma and normal adult human brain were fixed in ethanol/acetate buffer and processed for immunohistochemistry with the following anti-fibulin-3 antibodies: rabbit polyclonal anti-Fib3/911 (10 μg/ml), mouse monoclonal anti-fibulin-3 mAb428.3C11 (40 μg/ml), and a commercial mouse monoclonal antibody against human fibulin-3 (mAb3-5, 5 μg/ml, Santa Cruz Biotechnology). […] Both in-house generated antibodies show stronger staining in the tumor parenchyma compared to the commercial antibody. In all cases, staining is particularly intense around tumor blood vessels. […] Sections were counterstained to identify endothelial markers and cell nuclei by staining with anti-CD31 and DAPI respectively. (Data not shown).
Specific and striking fibrillar staining patterns of fibulin-3 were observed around tumor blood vessels (magnification: 40×). […] Endothelial cells were stained with anti-CD31 and cell nuclei with the dye DAPI. (Data not shown).

[3] = tested on: NFkB signaling induced by fibulin-3; test: NF-kB luminescent reporter in U251 glioma cells transfected with fibulin-3 cDNA; type: cell-based; conditions: 100 μg/ml, 0, 2, 6 and 24 h
Description: Glioma cells (U251 line) were transfected with a luminescent reporter plasmid driven by NF-kB signaling (pGL4.32[luc2P/NF-κB-RE/Hygro], PROMEGA). Cells were co-transfected with plasmids carrying fibulin-3 cDNA (Fib3 OE) or a control cDNA (Control) and incubated in serum-free conditions for 24 h. The following day mAb428.2 (100 μg/ml) was added to the cultures and NFkB signaling activity was measured after 0, 2, 6, and 24 h.

[4] = tested on: GBM34 glioblastoma stem cells; test: Intravenous injection in subcutaneous GBM34 xenografts, growth and overall survival; type: in vivo, Athymic mice
Description: Athymic mice received SQ bilateral implants of GBM34 glioblastoma stem cells (1×10^6 cells/50 μl). Tumors were allowed to grow until they reached a volume of 100 mm^3. Animals (N=5/group) were then injected with mAb428.2 (30 mg/kg) or non-immune mouse IgG1 every day, for a total of 8 days (total: 8 injections). Mice were monitored for tumor growth and sacrificed when any of their tumors reached a length >=20 mm. Long-term survivors (>40 days) in which length was not increasing above 20 mm were euthanized when tumors reached width >=15 mm or presented ulcerations. […] Curves for overall survival were compared by long-rank test

B1: mAb428.2: mouse monoclonal IgG1 kappa antibody against human fibulin-3 peptide SEQ ID NO:2; VH SEQ ID NO: 3, VL SEQ ID NO: 4 (antibody, V domains shown)
VH: QIQLVQSGPELKKPGETVKISCKASGYSFTTYGMSWVKQAPGKGLKWMGWINTYSGVPTYADDFKGRFAFFLETSASTAYLQINNLKNEDTATYFCARWVDYWGQGTTLTVSS
VL: DIKMTQSPSSMYASLGERVTITCKASQDIKSYLSWHQQKPWKSPKTLIYYATSLADGVPSRFSGSGSGQDYSLTISSLESDDTATYYCLQHGKSPYTFGGGTKLEIK
tumor volume and weight compared to control IgG1 ([1]; 10 mg/kg intratumoral every two days, 4 injections): reduction in tumor volume and weight | tumor volume and weight compared to control IgG1 ([1]; 30 mg/kg intratumoral every two days, 3 injections): reduction in tumor volume and weight | median volume reduction ([1]; direct intratumoral injection, GBM stem cell xenograft): 45% | cross-reactivity against fibulin-5 (fibulin-5): no cross-reactivity | cross-reactivity against fibulin-4 (fibulin-4): no cross-reactivity | fibulin-3 staining in glioblastoma tissue [2]: detected fibulin-3 in the stroma and capillaries of human GBM | fibulin-3 staining in glioblastoma tissue ([2]; listed as mAb428.3C11): Specific staining of fibulin-3 in tumor tissue; also recorded: detected the same fibrillar pattern observed with a commercial anti-fibulin-3 antibody | effect on fibulin-3-induced NFkB signaling [3]: blocking of this effect | overall survival compared to control IgG1 ([4]; 30 mg/kg IV every day, 8 injections): extended overall survival two-fold; also recorded: significant prolongation of overall survival | tumor growth ([4]; IV 8×30 mg/kg): significant delay in tumor growth
